Measured values taken from paper PMC4942676.
Each block holds one substance with its values, some of them ahead of it.

How the values were obtained:
[1] = biological target: UBQLN UBL domain UBL (Homo sapiens) (UniProt Q9UMX0); settings: cited from earlier work
[2] = biological target: FLAG-tagged construct containing the Omp25 TMD, translated in the PURE system; experiment: co-sedimentation; Omp25 TMD construct translated in the PURE system with 35S-methionine and 15 uM recombinant chaperone; sucrose gradient, autoradiography
[3] = biological target: UBQLN1 loaded with Ub-Omp25 (UniProt Q9UMX0); experiment: pull-down; client (Omp25 or Ub-Omp25) translated in lysate lacking ubiquitin, UbcH5 and the major TMD-binding factors, supplemented with 40 nM recombinant FLAG-tagged UBQLN1 variant; affinity purified via the FLAG tag; autoradiography for the client, immunoblot for proteasome subunit α7

Substance: UBQLN UBA domain UBA (from UniProt Q9UMX0)
Kd [1]: 80 µM

stoichiometry N [2]: 1
Substance: recombinant UBQLN1 (FLAG-tagged) (from UniProt Q9UMX0 1-589) (natural protein)

fold proteasome association relative to UBQLN1 loaded with Omp25 [3]: 2 to 3 fold
Substance: proteasome, endogenous in rabbit reticulocyte lysate (from UniProt G1SZ14 1-326) (complex)
